We go through 70 sequences from the domain aggregation screens of Martell et al. (2025).
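Note: 20 min heating vs room temperature control held 20 min.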

A short description of the data set: soluble fraction after stress (log2 fold change); higher = more stays soluble; pooled small domains, quantitative proteomics. As to conditions: stress: 75 degC.
On to “HMRMLTKRRQDLLLELLEERGSITVSEVKDMLDASESTIRRDITALDEEGKLVKVFGGAVAAR”, for which the “soluble fraction (log2)” value is -0.345.

As to “HMRMSRSARLFDLLHILRSHRRAVSGQALAQQLGISIRTLYRDIASLQAQGAKIEGEPGVGYMLKP”, the “soluble fraction (log2)” value is -1.82. With “HMRMTKQRQAVLDELTRVTDFRSAQQIFEDLHSQGHRVGLATIYRSLQGLAEDGSVDTLRSSDGESLY”, the “soluble fraction (log2)” value is -0.206. “HMRMTRQRKVILEELGKVYTHPTADEIYTMVKEKLPNISLGTVYRNLDLLAENNQVLKLETAGNIRRYD”: the “soluble fraction (log2)” value was -0.17.

With “HMRMYDVNEYSDEELHRILDLSSPTDSELEARILQMIQKYKYTNGGDNEKMAVFFENIYHHFFD”, the “soluble fraction (log2)” value was -1.65.

For the sequence “HMRNAAGGIYGWMTLHQVAETVKLTEEEVIAITNLPAGIPRDVSLKNIEGVNDEELRALLEAYLEKQ”, the “soluble fraction (log2)” value is -1.34. On to “HMRNISLSLRWHSGEWTADRLKSEVLALPGAMDMTVFEPQSQAYLRVEQGFDTKLLPAGIDVH”, for which the “soluble fraction (log2)” value is -1.31. Consider “HMRNNKLRRANKLKTEFENLPHIGKKRAHVLLKAFGSTENLKMTTAQALSEAAKISLKQAEEVLEAVRG”, for which the “soluble fraction (log2)” value was -0.466. The result for “HMRNQIRAVITPVPNQERYTVEMTIDDDAGNLLTLQMAAPDRQQAAEFAQRFQKHPEALYHAVLSVLL” reads -0.214. In the case of “HMRNSFTVENTGERLDVFLTGQMPEFSRSHIQKLIASGQAWVNGVNRKGNFKLKPHDVVELEVPEPE”, the “soluble fraction (log2)” value is 0.381. For the sequence “HMRNSVQREWIYDYIQRQDAHLSADEIYEGLLKEGKNISLATVYRNLSILVDEYKIASVMTDSKKQVYDK”, the “soluble fraction (log2)” value is -2.56. Take “HMRNTPQRRHAILALLSEQGEVSVDALAKRFSTSEVTIRKDLAAMESHGLLLRRYGGAVPMPQELI”: the “soluble fraction (log2)” value was -1.63. Consider “HMRPEVALSSRELEILEALATGKSNKELAQRLFISEATVKTHLIHIYQKLGVDTRTAAVTVARERKL”, for which the “soluble fraction (log2)” value is -2.3.

As to “HMRPEVTEHLKTADAILHGGDINRQSIVDELRQYAPLYIVRGNNDKDWAEAIPHDLTVTLGGVTFFMVHNR”, the “soluble fraction (log2)” value is -0.0851. Take “HMRPFAMNLLEKHKADIEVWLKHPNMTNTQIKRLLEELGTSVSVSSIDRFISTSFPKLPKHT”: the “soluble fraction (log2)” value is -0.121. Take “HMRPIWVQLADDFRHRIVSGQWPPGSKIPSVRELAAETGVNPNTVQRALGALDGEGLTATERTAGRFVTT”: the “soluble fraction (log2)” value is -0.266. Under “HMRPKVADIDYFDGKTFTIEDGSKHSITTSEAKKIYFYLVKNGYVDDESHVTDAYRSAATSGTLA” stands 0.0416; under “HMRPQELSSLNTNQMRLYNSLPEAFITAEAKDIADKLRYSERSLFRFLNESNLFTKTEHGSYAKKA”, 0.0879. “HMRPQYVDLFTKLSAEEAGAITSKLKELKVEYQLADNGSTIKVPQKDAAEIRLELANEGLPA”: the “soluble fraction (log2)” value was found to be 0.138. On to “HMRPRQDRSEETRDRILDAVVELIAERGLAGVSHRAVADRAGVSLSATSYYFGSKAELERAALEEHYRR”, for which the “soluble fraction (log2)” value was -0.881. Consider “HMRPSGEAVNAAYRLLKGANPSGNEGDLIQRAQEVAAILPKLNRSSAAAFAKDAKANGLTQAETIALWKGS”, for which the “soluble fraction (log2)” value was 0.135. Turning to “HMRPTYRTRLEVLINNPAISGRDLDFAQSLLSYYERKGRLSAGRVKWVTTLEERYSPENLAASAAK”, the “soluble fraction (log2)” value was -0.856. Under “HMRQFEPVEGYNPYADKNELHGYEYWGAKFADSRSPEETAWIKQQIDDENEDRRFISEAGLA” stands 0.0889. In the case of “HMRQQQISAAIKTSVNGTVDYYVRRLPERDPRGDFLEVWDDLQKVIQAAHGIQVSHDELYEYFRRLK”, the “soluble fraction (log2)” value is -0.833. Turning to “HMRQQSLHSLYRDHHSWLQNWLRRQLGNTWDAADLSQDTFIKVLASSQSVAEIREPRAYLLTVGKRL”, the “soluble fraction (log2)” value is -0.294. Under “HMRQSDIAAAFRESILRSSKGFQYLHTRDFVTALRRRGIHLSEVEANSWIAREKTYFVDSALDHSENRLWI” stands -1.65; under “HMRQSIHTALQLLTPREEEVLNLLVSGKSNKQVAEHFSLSSKTIERHRSSVMRKLDASSFAQLVRIAALR”, -3.27; under “HMRQYPSGVFKEEGVKAVYIHAGTPFLVIAAQYKIPLARLFEWNNLLPSTEARISQVIYLERPG”, -3.92. The result for “HMRRARVAGKGHFTGEDAMAVYRELEALFGETETLYLPGHRPFEAVLSKLALIGVPEKNTVPYTFAFVET” reads -0.392; that for “HMRREIRLTVTEEIVLMKFLLTQIPYKNRDNFKTLLNDRQIRVNGSVVTWYNHPLKPGQEVTIGWFKM”, -0.264.

Turning to “HMRRPRGVFNLVPGKRFGFITPDGGGEDVFAHLANVRAGHVAEDRNAVEYGIGRGPDGRDQAVDIVPMP”, the “soluble fraction (log2)” value was -0.329. For “HMRRQRNPEIFDQLVNKFHFTFTQTQQLKQLIKRWHMLFPGKSLKSAIQGYKSAKEILTYINDSLDVVE”, the “soluble fraction (log2)” value amounted to 0.213.

For the sequence “HMRRRTLRQGATGSDVHAVQRLLNVDGAGLRTDGIFGPATERAVIAYQRKHGLAVDGVVGRETWTALLG”, the “soluble fraction (log2)” value was -0.743.

For the sequence “HMRRSDLVTQGDEILKRLQWNQQQAKDFLNQHLKASSRQQLTDEQLLNFNMLLEEQLVKSME”, the “soluble fraction (log2)” value is 0.426. In the case of “HMRRSLIGPTVRERRRALGITQSRLAAEVGISASYLNLIEGDKRNIGGALLQRIAGALGLALD”, the “soluble fraction (log2)” value is -3.08.

Regarding “HMRRTVIVTAAHAEIRERPDANAPLVFSAEQKVSLDYQETAPGGWVKVRHRDGQSGYVRTNQI”, the “soluble fraction (log2)” value was -0.716. For “HMRRVGTALNRSHKVSYGESIQSIAARYNVNPTMLREYNRLKPEATITPGQILRIPPATIAS”, the “soluble fraction (log2)” value was -0.481. In the case of “HMRRVRRTRRLLQDGLLGLMQHKAVADISVKELAEAADVARATVYVHFKDPADVLHQLEQGLY”, the “soluble fraction (log2)” value came out at 0.091.

For the sequence “HMRSDHVFTSHLARRDKYISELESLSDSARDDHIQTIKEEDEYLLKYRRTRNLFGIPLNDEMKQFEPFNY”, the “soluble fraction (log2)” value was -0.228. As for “HMRSEILNLLREKSPQPVSGQDLANHFGITRTAVWKHIQSLKKMGYGIEAYTKKGYVLVSVPN”, the “soluble fraction (log2)” value was -0.159. Under “HMRSGEDESFSAGLLEYPHYTRPAEFEGHRIPDILTSGDHAKVDAWRQEMSEHITRERRPDLWEMYKKK” stands 0.13; under “HMRSHLSANLQRLRHIAGLTQKDLALAANLPRATLASLEQGEANPRLDTLLAVASALQVGLDELIAAP”, -1.32; under “HMRSIMAVSNYRHKKILEMVYQRKSVSADELAAEFGVSKITIRRDLDTLAMDKLLERTRGGAISISD”, -3.14. In the case of “HMRSRHYRFSTPFLDRLIAEIDWNSDNALSIFNQKLVHFDFLKYFSAIQPGSIVEIENLNFIWTGKRLEAH”, the “soluble fraction (log2)” value is -3.37.

Turning to “HMRSVLSDEIYLLIRKMIFNYEILPGAKVNIDALAKKLDVSQTPVREALSRLESDGLIVKEPLKGFRATD”, the “soluble fraction (log2)” value is -2.72. Under “HMRSVPNVAGLGMDGAAFQLGKAGFAIGTITPADDPKAVVGSIQRTEPAAGTVADRDTVVNLFQV” stands 0.228; under “HMRSVTLQTDREGDILYVDGKQIGVSPQRLELSYGVHTIRAERGEQHTEKELEVTETGGETVVTLGFG”, 0.375. Regarding “HMRSYTPGSAFRLSSVPVYNAETGPSIGVRSGTYYIHSLPVSNGRIRMTNLISRVGKPGQVSFWVEISR”, the “soluble fraction (log2)” value is -3.11. With “HMRTAELEVWDDDELNDVVKLIQNNHNINTLKLRFQENVSFSGLSLIAAVLTKQSIILEIEY”, the “soluble fraction (log2)” value stood at 0.235. For “HMRTDQYHYLAWKQVADELGIPFDEQVNERLRGVSRMASFDIILERYDGTMSDEEKIHWTDKKNEIYKSM”, the “soluble fraction (log2)” value was -0.603. As for “HMRTGLSGMIGEIGIVKQAIDPEGKVAVHGELWKARADVALAAGQTVRVVAVDGLTMTVEATDSK”, the “soluble fraction (log2)” value was -0.661. For the sequence “HMRTIPDALIGRPYESVETAIVLEGLQAKRTEVFHPTIRPGTVIRLEPTSGSELLRDGVVEIFVSQGPETT”, the “soluble fraction (log2)” value was 0.157. With “HMRTITIDDSIAGKRLDEALTLLGAESSRTKVKLLFSSPNGVLVNGEKEKPHYRVEAGDVIQFGELPKK”, the “soluble fraction (log2)” value came out at 0.541. For the sequence “HMRTKEGLASQLEKIPGIGPVKRKALLKKFGSIDAIAAASKEELMLTDGITSSLADAIRDYF”, the “soluble fraction (log2)” value was -0.0754. The result for “HMRTLKDSTEYLIRSMLLRGEMKVGEIYSANALAKELNISNSPVREAMMSLVDRGLLENVRNRGFRVV” reads -1.83; that for “HMRTLRENIMDYFKQQTIIQKSSVILLPMSKRQLADYFGVQRPSLFRELKKLKEEGIIEINNRTITIK”, -1.8. Turning to “HMRTSIWTAIAHSLRSDIGSGVYGPDDKLPTESALAARFGVNRHTVRHAIKALTDEGLVLPRRGAGVFVTS”, the “soluble fraction (log2)” value is -0.241. Consider “HMRTSPGADYEKTYYTIQSGDNLGAIAEKMGVSVADLKDWNDISGTKIYAGKKLVIYVKKGST”, for which the “soluble fraction (log2)” value was -0.351. As to “HMRTTTGSEGMIGSIGKAKTDLAPDGKIFIHGELWDATSSSPVSAGQKIEVTQIEGLKLHVKPVL”, the “soluble fraction (log2)” value is 0.7. Take “HMRTVLSDETYLRIREMLLTHDIAPGERINIDALARELDVSQTPVREALARLESEDLVTKEPLRGYTATK”: the “soluble fraction (log2)” value is -0.0533. In the case of “HMRTYEHALTEEEKELILIVSNLSEYKSLPPSQIVPKLADLGIYIASESSFYRVLRAHNQLHHRGR”, the “soluble fraction (log2)” value was -2.75.

For the sequence “HMRTYYEILGVSKNASLHEIQKAYRELALKYHPKNNSDPTAEEKFTQINEAYTHLSDAARRRSYDDL”, the “soluble fraction (log2)” value turned out to be 0.554. For the sequence “HMRVGADLTQRERELLALMAQGMSNQEIAKRLEIAVPTVKFHITNILDKLQVGNRTEAVIAALEHKLVP”, the “soluble fraction (log2)” value was -0.704.

For “HMRVKLVKKSILASGGENIRVDKFLSNHILTMTRTQIKKLFLDGLVQVNKSFVKPGSILKGNEIITFSIPE”, the “soluble fraction (log2)” value is -1.68. In the case of “HMRVNINVSENILDWVMKRVNPSVLSSKQGELLYAWKEGRKVPTYNQIEKMSKVTGIPLGYFFLEKPPVE”, the “soluble fraction (log2)” value was -1.45.

For “HMRVPQWLVDKIAAAGIDTHRSGPALKALAAKAGTPEQLDQAIARAKALRRRTGSTQSLNVGLLGSILEGT”, the “soluble fraction (log2)” value is -0.345. Under “HMRVQELARDLGVEADTLIALLRQMGIPVTGARSAINDAQQAKVLAKIERERRAGHSDPAKAIQAVLEEAS” stands 0.00503; under “HMRVSNADALIGRRGKANSDIRRGDYGWVAIDGDVWKSKLADDITEDIPMGAIVEVLSRDSIILTVKP”, -0.926. Turning to “HMRWAAIMGREVAAHSTPESLVEGKLHIRTDTTAWATQLRLMSADIVRRLNEVLGEGTVLEVDVRG”, the “soluble fraction (log2)” value is -2.22. As to “HMRWSDQKEIVTLSLDHVLVEKGRKTKEYSWREFRTFTAFEIKKSSKDQINLGFKSKGNTVIIGNF”, the “soluble fraction (log2)” value is -1.2.
